The target of the test is T1, neuropilin-1 (NRP1) on HEK293 cells overexpressing NRP1 (UniProt O14786 22-923, limits assumed).
T1 construct: whole, on cells
The experiment in a line: flow cytometry, HEK293-NRP1 vs HEK293. In general terms: In flow cytometry, cells or beads pass a laser one at a time.

B1: NRP1-214 (antibody, IgG2, V domains shown)
VH: EVQLLESGGGLVQPGGSLRLSCAASGFTFTTYGMSWVRQAPGKGLEWVSAISGSGGTTYYADSVKGRFTISRDNSKNTLYLQMNSLRAEDTAVYYCARVGPGRSIAARQGFKRRNNWFDPWGQGTLVTVSS
VL: DIQMTQSPSSLSASVGDRVTITCRASQSVSTSLNWYQQKPGKAPKLLIYGASRLQTGVPSRFSGSGSGTDFTLTISSLQPEDFATYYCQQTYSSPRTFGGGTKVEIK
Consider B1, for which the “100 nM FACS (MFI Ratio)” value came out at 1.

B2: NRP1-229 (antibody, IgG2, V domains shown)
VH: EVQLLESGGGLVQPGGSLRLSCAASGLTFSNFAMSWVRQAPGKGLEWVSAISGRGSSTYYADSVKGRFTISRDNSKNTLYLQMNSLRAEDTAVYYCARVMKMSRRIVGRRHRKGDGMDVWGQGTLVTVSS
VL: DIQMTQSPSSLSASVGDRVTITCRASQAISRSLNWYQQKPGKAPKLLIYGASALQTGVPSRFSGSGSGTDFTLTISSLQPEDFATYYCQQSYRPPFTFGGGTKVEIK
Consider B2, for which the “100 nM FACS (MFI Ratio)” value amounted to 1.2.

B3: NRP1-225 (antibody, IgG2, V domains shown)
VH: EVQLLESGGGLVQPGGSLRLSCAASGFMFSRYAMSWVRQAPGKGLEWVSAISGSGDTTHYADSVKGRFTISRDNSKNTLYLQMNSLRAEDTAVYYCARGGRGLRLQVPIVRHARKGKDYYMDVWGQGTLVTVSS
VL: DIQMTQSPSSLSASVGDRVTITCRASQSIGSHLSWYQQKPGKAPKLLIYRASSLQTGVPSRFSGSGSGTDFTLTISSLQPEDFATYYCLQTYSVPLTFGGGTKVEIK
For B3, the “100 nM FACS (MFI Ratio)” value amounted to 1.1.

B4: NRP1-223 (antibody, IgG2, V domains shown)
VH: EVQLLESGGGLVQPGGSLRLSCAASGFTFKKYAMSWVRQAPGKGLEWVSTISGSGRSTYYADSVKGRFTISRDNSKNTLYLQMNSLRAEDTAVYYCARDLARGTMPRGVIIPHNWFDPWGQGTLVTVSS
VL: DIQMTQSPSSLSASVGDRVTITCRASQSVRNYLNWYQQKPGKAPKLLIYGASRLHSGVPSRFSGSGSGTDFTLTISSLQPEDFATYYCQQSYSGPYSFGGGTKVEIK
Turning to B4, the “100 nM FACS (MFI Ratio)” value worked out at 12.8.

B5: NRP1-219 (antibody, IgG2, V domains shown)
VH: EVQLLESGGGLVQPGGSLRLSCAASGFPFSSYALSWVRQAPGKGLEWVSAITGSGGNTFYADSVKGRFTISRDNSKNTLYLQMNSLRAEDTAVYYCARGGQSGRPRVRGARRLDYYGMDVWGQGTLVTVSS
VL: DIQMTQSPSSLSASVGDRVTITCRASQSISKSLNWYQQKPGKAPKLLIYGASKLQRGVPSRFSGSGSGTDFTLTISSLQPEDFATYYCQQGYSAPLTFGGGTKVEIK
With B5, the “100 nM FACS (MFI Ratio)” value amounted to 1.2.

B6: NRP1-220 (antibody, IgG2, V domains shown)
VH: EVQLLESGGGLVQPGGSLRLSCAASGFTFRTYDMGWVRQAPGKGLEWVSAVSGSGGTTYYADSVKGRFTISRDNSKNTLYLQMNSLRAEDTAVYYCARETRRVLRRQWRRSYHSYGLDVWGQGTLVTVSS
VL: DIQMTQSPSSLSASVGDRVTITCRASQSISNKLNWYQQKPGKAPKLLIYAASTLQRGVPSRFSGSGSGTDFTLTISSLQPEDFATYYCQQSYKTPLTFGGGTKVEIK
In the case of B6, the “100 nM FACS (MFI Ratio)” value came to 2.3.

B7: NRP1-235 (antibody, IgG2, V domains shown)
VH: EVQLLESGGGLVQPGGSLRLSCAASGFTFPNYAMTWVRQAPGKGLEWVSGISGSGGRIYYADSVKGRFTISRDNSKNTLYLQMNSLGAEDTAVYYCARARKFRELLRRNNYSNHYYMDVWGQGTLVTVSS
VL: DIQMTQSPSSLSASVGDRVTITCRTSQSIGNYLNWYQQKPGKAPKLLIYGASKLQSGVPSRFSGSGSGTDFTLTISSLQPEDFATYYCQQGYSTPRTFGGGTKVEIK
In the case of B7, the “100 nM FACS (MFI Ratio)” value amounted to 0.8.

B8: NRP1-239 (antibody, IgG2, V domains shown)
VH: EVQLLESGGGLVQPGGSLRLSCAASGFPFSNYTMGWVRQAPGKGLEWVSAISASGGSPYYADSVNGRFTISRDNSKNTLYLQMNSLRAEDTAVYYCARVGPGRSIAARQGFKRRNNWFDPWGQGTLVTVSS
VL: DIQMTQSPSSLSTSVGDRVTITCRASQNIGSHLNWYQQKPGKAPKLLIYATSSLRSGVPSRFSGSGSGTDFTLTISSLQPEDFATYYCQQSYRIPLTFGGGTKVEIK
For the molecule B8, the “100 nM FACS (MFI Ratio)” value came to 0.2.

B9: NRP1-227 (antibody, IgG2, V domains shown)
VH: EVQLLESGGGLVQPGGSLRLSCAASGFTLRNYAMSWVRQAPGKGLEWVSALSSSGGSTYYADSVKGRFTISRDNSKNTLYLQMNSLRAEDTAVYYCARGGRGLRLQVPIVRHARKGKDYYMDVWGQGTLVTVSS
VL: DIQMTQSPSSLSASVGDRVTITCRPSQSVTTYLNWYQQKPGKAPKLLIYGSSTLQSGVPSRFSGSGSGTDFTLTISSLQPEDFATYYCQQSYTFPRTFGGGTKVEIK
On to B9, for which the “100 nM FACS (MFI Ratio)” value was determined as 2.6.

B10: NRP1-217 (antibody, IgG2, V domains shown)
VH: EVQLLESGGGLVQPGGSLRLSCAASGFTFGRYAMSWVRQAPGKGLEWVSSISGSGGSTYYADSVKGRFTISRDNSKNTLYLQMNSLRAEDTAVYYCARQRIKPNTPRESFFRRAYSYYGMDVWGQGTLVTVSS
VL: DIQMTQSPSSLSASVGDRVTITCRTSQRISTSLNWYQQKPGKAPKLLIYGASNLQSGAPSRFSGSGSGTDFTLTISSLQPEDFATYYCQQSYFTPITFGGGTKVEIK
As for B10, the “100 nM FACS (MFI Ratio)” value turned out to be 2.8.

B11: NRP1-238 (antibody, IgG2, V domains shown)
VH: EVQLLESGGGLVQPGGSLRLSCAASGFSFSNYGMSWVRQAPGKGLEWVSSISHSGGSTYYADSVKGRFTISRDNSKNTLYLQMNSLRAEDTAVYYCARVGPGRSIAARQGFKRRNNWFDPWGQGTLVTVSS
VL: DIQMTQSPSSLSASVGDRVTITCRASQSISSQLNWYQQKPGKAPKLLIYRASRLQSGVPSRFSGSGSGTDFTLTISSLQPEDFATYYCQQSYSTPRSFGGGTKVEIK
For the molecule B11, the “100 nM FACS (MFI Ratio)” value was found to be 0.9.

B12: NRP1-224 (antibody, IgG2, V domains shown)
VH: EVQLLESGGGLVQPGGSLRLSCAASGFTFGSYAMAWVRQAPGKGLEWVSGITASGGSTYYADSVKGRFTISRDNSKNTLYLQMNSLRAEDTAVYYCARVGPGRSIAARQGFKRRNNWFDPWGQGTLVTVSS
VL: DIQMTQSPSSLSASVGDRVTITCRASQNIGRYLNWYQQKPGKAPKLLIYAASTLHSGVPSRFSGSGSGTDFTLTISSLQPEDFATYYCQQSHSNPFTFGGGTKVEIK
As for B12, the “100 nM FACS (MFI Ratio)” value came out at 1.

B13: NRP1-280 (antibody, IgG2, V domains shown)
VH: EVQLLESGGGLVQPGGSLRLSCAASGFTFTTYGMSWVRQAPGKGLEWVSAISGSGGTTYYADSVKGRFTISRDNSKNTLYLQMNSLRAEDTAVYYCARVGPGRSIAARQGFKRRNNWFDPWGQGTLVTVSS
VL: DIQMTQSPSSLSASVGDRVTITCRASQTISNYVNWYQQKPGKAPKLLIYAASSLHAGVPSRFSGSGSGTDFTLTISSLQPEDFATYYCQQGYSTPLTFGGGTKVEIK
In the case of B13, the “100 nM FACS (MFI Ratio)” value was 0.6.

B14: NRP1-262 (antibody, IgG2, V domains shown)
VH: EVQLLESGGGLVQPGGSLRLSCAASGFTFKKYAMSWVRQAPGKGLEWVSTISGSGRSTYYADSVKGRFTISRDNSKNTLYLQMNSLRAEDTAVYYCARDLARGTMPRGVIIPHNWFDPWGQGTLVTVSS
VL: DIQMTQSPSSLSASVGDRVTITCRTSQSINTYLNWYQQKPGKAPKLLIYAASGLHSGVPSRFSGSGSGTDFTLTISSLQPEDFATYYCQQAYGTPFTFGGGTKVEIK
Turning to B14, the “100 nM FACS (MFI Ratio)” value turned out to be 6.2.

B15: NRP1-244 (antibody, IgG2, V domains shown)
VH: EVQLLESGGGLVQPGGSLRLSCAASGFTFTSYGMSWVRQAPGKGLEWVSTISGSGGYTYYADSVKGRFTISRDNSKNTLYLQMNSLRAEDAAVYYCALWNRYGGLSYWGQGTLVTVSS
VL: DIQMTQSPSSLSASVGDRVTITCRASQSIATYLHWYQQKPGKAPKLLIYGTSNLQSGVPSRFSGSGSGTDFTLTISSLQPEDFATYYCQQSYRTPGTFGGGTKVEIK
Consider B15, for which the “100 nM FACS (MFI Ratio)” value is 2.1.

B16: NRP1-248 (antibody, IgG2, V domains shown)
VH: EVQLLESGGGLVQPGGSLRLSCAASGFTFSKYAMSWVRQAPGKGLEWVSSISTSGGSTYYADSVKGRFTISRDNSKNTLYLQMNSLRAEDTAVYYCARGLLRLKPERRVRTTYYYGMDVWGQGTLVTVSS
VL: DIQMTQSPSSLSASVGDRVTITCRTSQSIGSYLNWYQQKPGKAPKLLIYASSSLQSGVPSRFSGSGSGTDFTLTISSLQPEDFATYYCQQSYSTPFSFGGGTKVEIK
On to B16, for which the “100 nM FACS (MFI Ratio)” value is 5.

B17: NRP1-16 (VHH)
VHH: EVQLVESGGGLVQPGGSLRLSCAASGRTFSRYVMGWFRQAPGKEREWVATSGTGYGATYADSVKGRFTISADNSKNTAYLQMNSLKPEDTAVYYCARGWLRTGWSIWGQGTLVTVSS
As for B17, the “100 nM FACS (MFI Ratio)” value turned out to be 15.9.

B18: NRP1-216 (antibody, IgG2, V domains shown)
VH: EVQLLESGGGLVQPGGSLRLSCAASGFSFRNYAMSWVRQAPGKGLEWVSTVSGSGSSTYYADSVKGRFTISRDNSKNTLYLQMNSLRAEDTAVYYCARGRRGMPAPDTVRKMAKSHLYFDSWGQGTLVTVSS
VL: DIQMTQSPSSLSASVGDRVTITCRASQSISNYLSWYQQKPGKAPKLLIYAASSLSGGVPSRFSGSGSGTDFTLTISSLQPEDFATYYCQQTYTTPYTFGGGTKVEIK
As for B18, the “100 nM FACS (MFI Ratio)” value turned out to be 3.6.

B19: NRP1-228 (antibody, IgG2, V domains shown)
VH: EVQLLESGGGLVQPGGSLRLSCAASGFSFSTHAMTWVRQAPGKGLEWVSTISGLGTGTYYADSVKGRFTISRDNSKNTLYLQMNSLRAEDTAVYYCARSTRGGFDYWGQGTLVTVSS
VL: DIQMTQSPSSLSASVGDRVTITCRAGQSIRSYLNWYQQKPGKAPKLLIYAASTLQRGVPSRFSGSGSGTDFTLTISSLQPEDFATYYCQQTYTTPLTFGGGTKVEIK
Take B19: the “100 nM FACS (MFI Ratio)” value was determined as 3.

B20: NRP1-252 (antibody, IgG2, V domains shown)
VH: EVQLLESGGGLVQPGGSLRLSCAASGFTFRSLAVSWVRQAPGKGLEWVSTITGSGGATYYADSVKGRFTISRDNSKNTLYLQMNSLRAEDTAVYYCARGRRGMPTPDTVRKMSKSHLYFDSWGQGTLVTVSS
VL: DIQMTQSPSSLSASVGDRVTITCRARQSISTYLNWYQQKPGKAPKLLIYSASTLESGVPSRFSGSGSGTDFTLTISSLQPEDFATYYCQQSYRTPWTFGGGTKVEIK
On to B20, for which the “100 nM FACS (MFI Ratio)” value is 1.

B21: NRP1-232 (antibody, IgG2, V domains shown)
VH: EVQLLESGGGLVQPGGSLRLSCAASGFTFTNYAMNWVRQAPGKGLEWVSSISGSGGRTDYADSVKGRFTISRDNSKNTLYLQMNSLRAEDTAVYYCARLKRGGTNLVRKATRYQFYGMDAWGQGTLVTVSS
VL: DIQMTQSPSSLSASVGDRVTITCRASQNIAKYLNWYQQKPGKAPKLLIYSASNLQSGVPSRFSGSGSGTDFTLTISSLQPEDFATYYCQQNYKTPYTFGGGTKVEIK
Consider B21, for which the “100 nM FACS (MFI Ratio)” value turned out to be 1.3.

(Values after patent US20230265198A1 (TWIST BIOSCIENCE, published 2023).)
